T1: GST-Rho-N-Strep (RHON1 C-terminal Rho-N domain) (Arabidopsis thaliana, UniProt Q94K75 362-401)
T1 chain: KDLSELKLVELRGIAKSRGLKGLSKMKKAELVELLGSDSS


Biological target: T1, GST-Rho-N-Strep (RHON1 C-terminal Rho-N …)
Experiment: EMSA

Row | Binder | binding result
1 | UUCUAGUACAACUAUUGCAGUAGAAUGACAA (ssRNA) [petA 5' UTR 31-mer] | no binding
2 | petB 3' UTR (ssRNA) RNA: GACUGAAGCUAACUUUGGUUGGUUAAUCCGAUCAGUUCAUCGAUGGUCGGCAAGUAUGAUGGUCCUAAUG | binds
3 | 23S-4.5Sa dsRNA (dsRNA) RNA 1: UUCCUCUAUUUGUUCGAUAGGGGAGAUUCCGACUUCCCCAGAGCCUCCGGUAGCACAGCCGAGACAGCAACGGGUUCUCCGCCCCUGCGGGGAUG RNA 2: CAUCCCCGCAGGGGCGGAGAACCCGUUGCUGUCUCGGCUGUGCUACCGGAGGCUCUGGGGAAGUCGGAAUCUCCCCUAUCGAACAAAUAGAGGAA | no binding
4 | petB 5' UTR (ssRNA) RNA: GGUAGUUCGACCGCGAAAUUUUUUUCUGCAUUGUAUAUUUCCGGAAUAUGAGUGUGUGACUUGUUAGAAU | binds

From paper PMC3458557
